Measured values taken from patent US6713283B2, “Tyrosylprotein sulfotransferases” (The Board of Regents of the University of Oklahoma, priority 1998, dated 2004).

How the values were obtained:
TPST = assay: Inhibition of [35S]sulfate transfer in the TPST assay by free peptide; assay type: biochemical; conditions: free peptide versus immobilized peptide
Experimental: (§1) Assay of Sulfotransferase Activity. TPST activity was determined by measuring the transfer of [^35S]sulfate from [^35S]PAPS (Dupont/NEN) to an immobilized peptide. The peptide (QATEYEYLDYDFLPEC (SEQ ID NO:22)) represents the NH2-terminal 15 residues of the mature PSGL-1 polypeptide to which a carboxy terminal cysteine residue was added. […] The peptide was linked via the cysteine residue to iodoacetamide-activated resin (UltraLink™ Iodoacetyl, Pierce) at a density of 1.5-3.0 μmol/ml resin. The enzyme assay was performed by combining 10 μl of peptide-derivitized beads with 2-20 μl of sample in 40 mM PIPES, pH 6.8, 0.3 M NaCl, 20 mM MnCl2, 50 mM NaF, 1% Triton X-100, 1 mM 5′AMP in a final volume of […]. The assay was initiated by addition of 0.5 μCi of [^35S]PAPS (about 1.7 μM). After 30 min at 37° C., the reaction beads were washed extensively with 6 M guanidine at 65° C. and the radioactivity incorporated into the beads determined by liquid scintillation counting. The reaction rate was optimal at pH 6.8-7.0, 0.3 M NaCl, and 2 μM PAPS and was linear with respect to time and sample input. […] One unit of activity was defined as 1 pmol of product formed per minute.

[1] = system: PSGL-1 peptide (QATEYEYLDYDFLPEC); assay: TPST activity assay: transfer of [35S]sulfate from [35S]PAPS to immobilized PSGL-1 peptide; assay type: biochemical, Homo sapiens; conditions: for Induction-Fold: mean specific activity of TPST transfected vs. mock transfected extracts; for TPST activity in cell-free conditioned media / culture supernatants: conditioned media of transfected CHO-K1 and 293-T cells (full-length enzyme); for Specific Activity / specific activity of 293-T cell extracts: mean ± SD; for Specific Activity: 1 unit = 1 pmol product/min; for specific activity of 293-T cell extracts: 293-T cells transfected with full-length HPC4 fusion cDNA; for increase in specific activity of 293-T cell extracts compared to mock transfected: PSGL-1 peptide substrate
Experimental: as §1
Chinese hamster ovary cells (CHO-K1) were grown in high-glucose Alpha modified Eagle's media containing 10% FCS, 2 mM glutamine at 37° C. and 5% CO2. The human embryonic kidney cell line 293-T was grown in low-glucose Dulbecco's modified Eagle's media containing 10% FCS, 2 mM glutamine at 37° C. and 5% CO2. Cells were transfected with empty vector or vector containing cDNAs encoding human TPST-1-HPC4 fusion protein or mouse TPST-1 using Lipofectamine (Gibco/BRL) according to the instructions of the supplier. The media was changed at 24 h and after an additional 24 h the conditioned media was collected. The cell monolayers were washed with Ca^2+/Mg^2+-free Hank's balanced salt solution and the cells released from the plates. The cells were pelleted by centrifugation and extracted with 1% Triton X-100, 0.1 M NaCl, 20 mM TAPS (pH 9.0), 10 μg/ml leupeptin/antipain, 5 mM benzamidine. Extracts and conditioned media were clarified by centrifugation (15 min, 10,000 g) and stored at −80° C.
Expression and characterization of Recombinant TPST-2. Full-length human and mouse TPST-2 were expressed in 293-T cells as HPC4 fusion proteins as described in Experimental Procedures. Cells transfected with empty plasmid or plasmid encoding human and mouse TPST fusion proteins were extracted and assayed for TPST activity and protein content. Extracts were assayed as discussed above using a PSGL-1 peptide substrate (QATEYEYLDYDFLPEC (SEQ ID NO:22)). The specific activity of mock transfected 293-T cell extracts was 0.06±0.01 u/mg (mean±SD, n=6).

[2] = extracts of transfected 293-T cells

QATEYEYLDYDFLPEC [free peptide]
IC50 for inhibition of transfer of [35S]sulfate (TPST): equimolar to the concentration of immobilized peptide in the assay

B1: hTPST-1-HPC4: Human tyrosylprotein sulfotransferase-1 (SEQ ID NO:1) expressed as fusion protein with NH2-terminal HPC4 epitope (protein)
chain: MVGKLKQNLLLACLVISSVTVFYLGQHAMECHHRIEERSQPVKLESTRTTVRTGLDLKANKTFAYHKDMPLIFIGGVPRSGTTLMRAMLDAHPDIRCGEETRVIPRILALKQMWSRSSKEKIRLDEAGVTDEVLDSAMQAFLLEIIVKHGEPAPYLCNKDPFALKSLTYLSRLFPNAKFLLMVRDGRASVHSMISRKVTIAGFDLNSYRDCLTKWNRAIETMYNQCMEVGYKKCMLVHYEQLVLHPERWMRTLLKFLQIPWNHSVLHHEEMIGKAGGVSLSKVERSTDQVIKPVNVGALSKWVGKIPPDVLQDMAVIAPMLAKLGYDPYANPPNYGKPDPKIIENTRRVYKGEFQLPDFLKEKPQTEQVE
modifications: N-terminal HPC4 epitope tag
specific activity of TPST-1 extracts relative to TPST-2 extracts ([1]; 293-T cell extracts, PSGL-1 peptide as substrate): comparable
Induction-Fold ([1]; 293-T cells): 80 Fold
Induction-Fold ([1]; CHO-K1 cells): 9 Fold
TPST activity in cell-free conditioned media / culture supernatants [1]: not detectable
Specific Activity [1, 2]: 8.84 ± 1.53 (5) units/mg
Specific Activity ([1]; extracts of transfected CHO-K1 cells): 2.31 ± 0.89 (3) units/mg
specific activity of purified fusion protein ([1]; purified from 293-T cell extracts by HPC4 affinity chromatography): about 6,300 u/mg

B2: human TPST-2: Full-length human tyrosylprotein sulfotransferase-2 (SEQ ID NO:5) expressed as HPC4 fusion protein (protein)
chain: MRLSVRRVLLAAGCALVLVLAVQLGQQVLECRAVLAGLRSPRGAMRPEQEELVMVGTNHVEYRYGKAMPLIFVGGVPRSGTTLMRAMLDAHPEVRCGEETRIIPRVLAMRQAWSKSGREKLRLDEAGVTDEVLDAAMQAFILEVIAKHGEPARVLCNKDPFTLKSSVYLSRLFPNSKFLLMVRDGRASVHSMITRKVTIAGFDLSSYRDCLTKWNKAIEVMYAQCMEVGKEKCLPVYYEQLVLHPRRSLKLILDFLGIAWSDAVLHHEDLIGKPGGVSLSKIERSTDQVIKPVNLEALSKWTGHIPGDVVRDMAQIAPMLAQLGYDPYANPPNYGNPDPFVINNTQRVLKGDYKTPANLKGYFQVNQNSTSSHLGSS
modifications: HPC4 epitope tag
specific activity of 293-T cell extracts [1]: 7.07±1.28 u/mg
increase in specific activity of 293-T cell extracts compared to mock transfected ([1]; 293-T cells): 112 fold

B3: rat liver TPST: TPST purified from rat liver microsomes, polypeptide of about 50 kDa (protein)
chain: MVGKLKQNLLLACLVISSVTVFYLGQHAMECHHRIEERSQPARLENPKATVRTGLDIKANKTFTYHKNMPLIFIGGVPRSGTTLMRAMLDAHPDIRCGEETRVIPRILALKQMWSRSSKEKIRLDEAGVTDEVLDSAMQAFLLEVIVKHGEPAPYLCNKDPFALKSLTYLARLFPNAKFLLMVRDGRASVHSMISRKVTIAGFDLNSYRDCLTKWNRAIETMYNQCMEVGYKKCMLVHYEQLVLHPERWMRTLLKFLHIPWNHSVLHHEEMIGKAGGVSLSKVERSTDQVIKPVNVGALSKWVGKIPPDVLQDMAVIAPMLAKLGYDPYANPPNYGKPDPKILENTRRVHKGEFQLPDFLKEKPQTEQVE
specific activity of purified enzyme ([1]; rat liver microsomal enzyme after second PSGL-1 peptide column): about 2,950 units/mg

B4: mTPST-1: Mouse tyrosylprotein sulfotransferase-1 (SEQ ID NO:3), expressed from unmodified pcDNA3.1(+) vector (protein)
chain: MVGKLKQNLLLACLVISSVTVFYLGQHAMECHHRIEERSQPARLENPKATVRAGLDIKANKTFTYHKDMPLIFIGGVPRSGTTLMRAMLDAHPDIRCGEETRVIPRILALKQMWSRSSKEKIRLDEAGVTDEVLDSAMQAFLLEVIVKHGEPAPYLCNKDPFALKSLTYLARLFPNAKFLLMVRDGRASVHSMISRKVTIAGFDLNSYRDCLTKWNRAIETMYNQCMEVGYKKCMLVHYEQLVLHPERWMRTLLKFLHIPWNHSVLHHEEMIGKAGGVSLSKVERSTDQVIKPVNVGALSKWVGKIPPDVLQDMAVIAPMLAKLGYDPYANPPNYGKPDPKILENTRRVYKGEFQLPDFLKEKPQTEQVE
Induction-Fold ([1]; 293-T cells): 74 Fold
TPST activity in cell-free conditioned media / culture supernatants [1]: not detectable
Specific Activity [1, 2]: 8.10 ± 1.37 (4) units/mg

B5: mouse TPST-2: Full-length mouse tyrosylprotein sulfotransferase-2 (SEQ ID NO:7) expressed as HPC4 fusion protein (protein)
chain: MRLSVRKVLLAAGCALALVLAVQLGQQVLECRAVLGGTRNPRRMRPEQEELVMLGADHVEYRYGKAMPLIFVGGVPRSGTTLMRAMLDAHPEVRCGEETRIIPRVLAMRQAWTKSGREKLRLDEAGVTDEVLDAAMQAFILEVIAKHGEPARVLCNKDPFTLKSSVYLARLFPNSKFLLMVRDGRASVHSMITRKVTIAGFDLSSYRDCLTKWNKAIEVMYAQCMEVGRDKCLPVYYEQLVLHPRRSLKRILDFLGIAWSDTVLHHEDLIGKPGGVSLSKIERSTDQVIKPVNLEALSKWTGHIPRDVVRDMAQIAPMLARLGYDPYANPPNYGNPDPIVINNTHRVLKGDYKTPANLKGYFQVNQNSTSPHLGSS
modifications: HPC4 fusion tag
specific activity of 293-T cell extracts [1]: 2.91±0.86 u/mg
increase in specific activity of 293-T cell extracts compared to mock transfected ([1]; 293-T cells): 46 fold

B6: C. elegans TPST-A: C. elegans tyrosylprotein sulfotransferase of 380 amino acids (SEQ ID NO:9), expressed full-length in 293-T cells (protein)
chain: MRKNRELLLVLFLVVFILFYFITARTADDPYYSNHREKFNGAAADDGDESLPFHQLTSVRSDDGYNRTSPFIFIGGVPRSGTTLMRAMLDAHPEVRCGEETRVIPRILNLRSQWKKSEKEWNRLQQAGVTGEVINNAISSFIMEIMVGHGDRAPRLCNKDPFTMKSAVYLKELFPNAKYLLMIRDGRATVNSIISRKVTITGFDLNDFRQCMTKWNAAIQIMVDQCESVGEKNCLKVYYEQLVLHPEAQMRRITEFLDIPWDDKVLHHEQLIGKDISLSNVERSSDQVVKPVNLDALIKWVGTIPEDVVADMDSVAPMLRRLGYDPNANPPNYGKPDELVAKKTEDVHKNGAEWYKKAVQVVNDPGRVDKPIVDNEVSKL
increase in specific activity of 293-T cell extracts compared to mock transfected ([1]; 293-T cells): 40 fold
